From US20250197514A1 (INTERVET, published 2025)
Positions count from the first letter of the chain named. In names and notes the source's numbering stands.

T1: canine FcRn heterodimer (FCGRT large subunit p51 + beta-2-microglobulin), biotin-labeled (Canis lupus familiaris; Canis familiaris, biotin-labeled (site not stated; the chain carries an AviTag))
T1 construct: also called FcRn/B2M; FcRn/β2M; not shown: AviTag, named only
T1 chain (part 1 of 2): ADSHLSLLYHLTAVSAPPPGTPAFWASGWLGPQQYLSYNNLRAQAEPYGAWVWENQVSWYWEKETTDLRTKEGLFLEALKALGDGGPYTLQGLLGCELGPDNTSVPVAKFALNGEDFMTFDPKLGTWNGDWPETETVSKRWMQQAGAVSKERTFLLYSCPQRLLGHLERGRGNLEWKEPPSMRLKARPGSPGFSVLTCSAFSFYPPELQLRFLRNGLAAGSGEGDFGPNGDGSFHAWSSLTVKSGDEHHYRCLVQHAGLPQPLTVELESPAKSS
T1 chain (part 2 of 2): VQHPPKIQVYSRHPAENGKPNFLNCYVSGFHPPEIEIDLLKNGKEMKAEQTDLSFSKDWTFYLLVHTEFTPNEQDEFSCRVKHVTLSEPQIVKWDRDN

B1: cIL-13Rα2-cIgGB-Fc-KY (Fc fusion)
chain: SMLSNAEIKVNPPQDFEIVDPGYLGYLSLQWQPPLFPDNFKECTIEYELKYRNIDSENWKTIITKNLHYKDGFDLNKGIEAKINTLLPAQCTNGSEVRSSWAETTYWTSPQGNRETKIQDMDCVYYNWQYLVCSWKPGMGVHFDTNYQLFYWYEGLDHSAECTDYIKVNGKNMGCRFPYLESSDYKDFYICVNGSSESQPIRPSYFIFQLQNIVKPMPPDYLSLTVKNSEEINLKWNMPKGPIPAKCFIYEIEFTEDGTTWVTTTVENEIQITRTSNESQKLCFLVRSKVNIYCSDDGIWSEWSDEQCWKGDIWKETPKRENGRVPRPPDCPKCPAPEMLGGPSVFIFPPKPKDTLLIARTPEVTCVVVDLDPEDPEVQISWFVDGKQMQTAKTQPREEQFNGTYRVVSVLPIGHQDWLKGKQFTCKVNNKALPSPIERTISKARGQAHQPSVYVLPPSREELSKNTVSLTCLIKDFFPPDIDVEWQSNGQQEPESKYRTTPPQLDEDGSYFLYSKLSVDKSRWQRGDTFICAVMHEALKYHYTQESLSHSPGK
notes: also called cIL-13Ra2-cIgGB-Fc-KY; H433K/N434Y
B2: cIL-13Rα2-cIgGB-Fc-KFT (Fc fusion)
chain: B1 chain with Y541F, Y543T
notes: also called cIL-13Ra2-cIgGB-Fc-KFT; H433K/N434F/Y436T
B3: cIL-13Ra2-Fc (unsubstituted canine IL-13Rα2 ECD - cIgG-B hinge - cIgG-B Fc fusion protein) (Fc fusion)
chain: B1 chain with K540H, Y541N
notes: also called cIL-13Rα2-cIgGB-Fc; substitution: None
B4: cIL-13Rα2-cIgGB-Fc-DPY (Fc fusion)
chain: B1 chain with T361D, I413P, K540H
notes: also called cIL-13Ra2-cIgGB-Fc-DPY; T256D/I308P/N434Y
B5: cIL-13Rα2-cIgGB-Fc-PY (Fc fusion)
chain: B1 chain with I413P, K540H
notes: also called cIL-13Ra2-cIgGB-Fc-PY; I308P/N434Y
B6: cIL-13Rα2-cIgGB-Fc-F (Fc fusion)
chain: B1 chain with K540H, Y541F
notes: also called cIL-13Ra2-cIgGB-Fc-F; N434F
B7: cIL-13Rα2-cIgGB-Fc-LF (Fc fusion)
chain: B1 chain with K540L, Y541F
notes: also called cIL-13Ra2-cIgGB-Fc-LF; H433L/N434F
B8: cIL-13Rα2-cIgGB-Fc-LYT (Fc fusion)
chain: B1 chain with K540L, Y543T
notes: also called cIL-13Ra2-cIgGB-Fc-LYT; H433L/N434Y/Y436T
B9: cIL-13Rα2-cIgGB-Fc-Y (Fc fusion)
chain: B1 chain with K540H
notes: Made in ExpiCHO, Protein A purified; also called cIL-13Ra2-cIgGB-Fc-Y; N434Y
B10: cIL-13Rα2-cIgGB-Fc-L (Fc fusion)
chain: B1 chain with K540L, Y541N
notes: also called cIL-13Ra2-cIgGB-Fc-L; H433L
B11: cIL-13Rα2-cIgGB-Fc-K (Fc fusion)
chain: B1 chain with Y541N
notes: also called cIL-13Ra2-cIgGB-Fc-K; H433K
B12: cIL-13Ra2-Fc-YTE (Fc fusion)
chain: B1 chain with L357Y, A359T, T361E, K540H, Y541N
notes: also called L252Y/A254T/T256E
B13: cIL-13Rα2-cIgGB-Fc-YT (Fc fusion)
chain: B1 chain with K540H, Y543T
notes: also called cIL-13Ra2-cIgGB-Fc-YT; N434Y/Y436T
B14: cIL-13Rα2-cIgGB-Fc-DY (Fc fusion)
chain: B1 chain with T361D, K540H
notes: also called cIL-13Ra2-cIgGB-Fc-DY; T256D/N434Y
B15: cIL-13Rα2-cIgGB-Fc-KF (Fc fusion)
chain: B1 chain with Y541F
notes: also called cIL-13Ra2-cIgGB-Fc-KF; H433K/N434F
B16: cIL-13Rα2-cIgGB-Fc-T (Fc fusion)
chain: B1 chain with K540H, Y541N, Y543T
notes: also called cIL-13Ra2-cIgGB-Fc-T; Y436T
B17: cIL-13Rα2-cIgGB-Fc-LY (Fc fusion)
chain: B1 chain with K540L
notes: also called cIL-13Ra2-cIgGB-Fc-LY; H433L/N434Y
B18: cIL-13Rα2-cIgGB-Fc-KYT (Fc fusion)
chain: B1 chain with Y543T
notes: also called cIL-13Ra2-cIgGB-Fc-KYT; H433K/N434Y/Y436T
B19: cIL-13Rα2-cIgGB-Fc-LFT (Fc fusion)
chain: B1 chain with K540L, Y541F, Y543T
notes: also called cIL-13Ra2-cIgGB-Fc-LFT; H433L/N434F/Y436T
B20: c218D9-H4L3-cIgGBm-YD (antibody)
heavy: EVTLQESGPGLVKPSQTLSLTCSFSGFSLSTFGRGVGWIRQRPGRGLEWMGHIWWDDDKYYNPALKSRLSITKDTAKNQVFLQLSSMTTEDTAVYYCARIAGGLRRAPYAMDSWGQGTLVTVSSASTTAPSVFPLAPSCGSTSGSTVALACLVSGYFPEPVTVSWNSGSLTSGVHTFPSVLQSSGLYSLSSMVTVPSSRWPSETFTCNVAHPASKTKVDKPVPKRENGRVPRPPDCPKCPAPEMLGGPSVFIFPPKPKDTLYIARDPEVTCVVVALDPEDPEVQISWFVDGKQMQTAKTQPREEQFAGTYRVVSVLPIGHQDWLKGKQFTCKVNNKALPSPIERTISKARGQAHQPSVYVLPPSREELSKNTVSLTCLIKDFFPPDIDVEWQSNGQQEPESKYRTTPPQLDEDGSYFLYSKLSVDKSRWQRGDTFICAVMHEALHNHYTQESLSHSPGK
light: DIVMTQTPLSLSVSPGETASISCRASENIYSSLAWFRQKPGQSPQLLVYAATNLADGVPDRFSGSGSGTDYTLRISRVEADDTGVYYCQHFRDTPPTFGQGTKLEIKRNDAQPAVYLFQPSPDQLHTGSASVVCLLNSFYPKDINVKWKVDGVIQDTGIQESVTEQDKDSTYSLSSTLTMSSTEYLSHELYSCEITHKSLPSTLIKSFQRSECQRVD
notes: also called c218D9VH4-cIgGBm-YD; L252Y/T256D

Molecular target: T1, canine FcRn heterodimer (FCGRT large …)
Assay: BLI (Octet HTX), biotinylated FcRn/B2M on streptavidin biosensors, analyte 500-7.8 nM, pH 6.0, 1:1 fit; pH 6.0
Method: (§1) The binding of antibodies and IgG Fc fusion proteins to FcRn proteins was determined by Octet™ HTX using Streptavidin (SA) biosensors. First, biotin-labeled […] was loaded onto pre-hydrated SA biosensors for 60 s at a concentration of 10 μg/mL. Second, the biosensors were placed into pH 6.0 TBS/Casein buffer for the blocking phase for 180 s. Third, for the association phase, FcRn/B2M loaded biosensors were placed into 2-fold serial dilutions from 500 nM down to 7.8 nM of antibody or IgG Fc fusion protein in pH 6.0 or 7.4 TBS/Casein buffer for 15 s. Finally, the biosensors were placed into either pH 6.0 or pH 7.4 TBS/Casein buffer for the dissociation phase for 60 s. Analysis was performed using Octet Data Analysis 12.0 software and curves were fitted using a 1:1 binding model.

| Binder | Kd [nM] |
| --- | --- |
| B1 | 0.00046 |
| B2 | 931 |

Molecular target: T1, canine FcRn heterodimer (FCGRT large …)
Assay: BLI (Octet HTX), biotinylated FcRn/B2M on streptavidin biosensors, analyte 500-7.8 nM, pH 6.0, 1:1 fit
Method: as §1

| Binder | Kd [nM] |
| --- | --- |
| B3 | 16.9 |
| B4 | 0.34 |
| B5 | 0.3 |
| B6 | 0.93 |
| B7 | 2.27 |
| B8 | 3.32 |
| B9 | 0.11 |
| B10 | 12.3 |
| B11 | 7.55 |
| B12 | 6.59 |
| B13 | 1.39 |
| B14 | 0.87 |
| B15 | 0.97 |
| B16 | 5.95 |
| B17 | 2.35 |
| B18 | 2.58 |
| B19 | 2.87 |

Molecular target: T1, canine FcRn heterodimer (FCGRT large …)
Assay: BLI (Octet HTX), biotinylated FcRn/B2M on streptavidin biosensors, analyte 500-7.8 nM, pH 7.4, 1:1 fit; pH 7.4
Method: as §1

| Binder | Kd [nM] |
| --- | --- |
| B20 | 105 |

Molecular target: T1, canine FcRn heterodimer (FCGRT large …)
Assay: BLI (Octet HTX), biotinylated FcRn/B2M on streptavidin biosensors, analyte 500-7.8 nM, pH 7.4, 1:1 fit
Method: as §1

| Binder | Kd [nM] |
| --- | --- |
| B3 | 7020 |
| B4 | 19.8 |
| B5 | 20.4 |
| B6 | 229 |
| B1 | 296 |
| B7 | 226 |
| B8 | 127 |
| B9 | 187 |
| B10 | 7210 |
| B11 | 626 |
| B12 | 363 |
| B13 | 233 |
| B14 | 91.8 |
| B15 | 414 |
| B16 | 6120 |
| B17 | 298 |
| B18 | 253 |
| B2 | 136 |
| B19 | 905 |
